Results: US20250262210A1 (TRUSTEES OF COLUMBIA UNIVERSITY IN THE CITY OF NEW YORK, published 2025)

Key:
Assay in all cases: IP/MS, LZTR1 wild type-FLAG, U87
[1] = molecular target: T1, EMC1 (human, UniProt Q8N766 23-993, limits assumed)
T1 sequence (looked up): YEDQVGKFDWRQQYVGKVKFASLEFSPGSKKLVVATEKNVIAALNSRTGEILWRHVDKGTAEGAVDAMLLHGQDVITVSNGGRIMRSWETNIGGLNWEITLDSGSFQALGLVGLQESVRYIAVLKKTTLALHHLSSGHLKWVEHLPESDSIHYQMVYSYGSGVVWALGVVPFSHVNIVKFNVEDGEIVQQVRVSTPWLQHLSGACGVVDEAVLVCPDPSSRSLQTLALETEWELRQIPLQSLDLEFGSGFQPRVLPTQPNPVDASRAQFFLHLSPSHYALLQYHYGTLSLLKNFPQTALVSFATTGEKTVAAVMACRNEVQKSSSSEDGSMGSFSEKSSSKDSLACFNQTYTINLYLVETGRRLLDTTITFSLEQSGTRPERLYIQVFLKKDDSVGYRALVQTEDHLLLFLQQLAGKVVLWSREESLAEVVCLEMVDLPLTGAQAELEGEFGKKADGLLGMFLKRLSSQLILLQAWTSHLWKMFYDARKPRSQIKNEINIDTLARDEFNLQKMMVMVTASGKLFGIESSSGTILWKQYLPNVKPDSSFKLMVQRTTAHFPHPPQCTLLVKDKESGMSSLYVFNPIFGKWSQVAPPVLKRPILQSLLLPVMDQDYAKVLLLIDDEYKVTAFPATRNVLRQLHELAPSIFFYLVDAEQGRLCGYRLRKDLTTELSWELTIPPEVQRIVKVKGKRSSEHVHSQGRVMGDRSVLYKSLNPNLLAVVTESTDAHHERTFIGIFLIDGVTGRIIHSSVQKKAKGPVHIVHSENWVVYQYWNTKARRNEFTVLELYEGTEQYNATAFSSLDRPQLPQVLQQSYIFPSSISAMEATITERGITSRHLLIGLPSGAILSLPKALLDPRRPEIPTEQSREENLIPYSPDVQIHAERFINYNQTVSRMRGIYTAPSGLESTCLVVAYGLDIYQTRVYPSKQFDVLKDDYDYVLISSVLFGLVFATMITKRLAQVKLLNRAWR
In short: (§1)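 Gel slices were reduced with 5 mM DTT, alkylated with 11 mM IAA and digested overnight at 37° C. with trypsin. Peptides were analysed on an Orbitrap Fusion Tribrid by LC-MS/MS.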

[2] = molecular target: T2, LONP2 (human, UniProt Q86WA8 2-852, limits assumed)
T2 sequence (looked up): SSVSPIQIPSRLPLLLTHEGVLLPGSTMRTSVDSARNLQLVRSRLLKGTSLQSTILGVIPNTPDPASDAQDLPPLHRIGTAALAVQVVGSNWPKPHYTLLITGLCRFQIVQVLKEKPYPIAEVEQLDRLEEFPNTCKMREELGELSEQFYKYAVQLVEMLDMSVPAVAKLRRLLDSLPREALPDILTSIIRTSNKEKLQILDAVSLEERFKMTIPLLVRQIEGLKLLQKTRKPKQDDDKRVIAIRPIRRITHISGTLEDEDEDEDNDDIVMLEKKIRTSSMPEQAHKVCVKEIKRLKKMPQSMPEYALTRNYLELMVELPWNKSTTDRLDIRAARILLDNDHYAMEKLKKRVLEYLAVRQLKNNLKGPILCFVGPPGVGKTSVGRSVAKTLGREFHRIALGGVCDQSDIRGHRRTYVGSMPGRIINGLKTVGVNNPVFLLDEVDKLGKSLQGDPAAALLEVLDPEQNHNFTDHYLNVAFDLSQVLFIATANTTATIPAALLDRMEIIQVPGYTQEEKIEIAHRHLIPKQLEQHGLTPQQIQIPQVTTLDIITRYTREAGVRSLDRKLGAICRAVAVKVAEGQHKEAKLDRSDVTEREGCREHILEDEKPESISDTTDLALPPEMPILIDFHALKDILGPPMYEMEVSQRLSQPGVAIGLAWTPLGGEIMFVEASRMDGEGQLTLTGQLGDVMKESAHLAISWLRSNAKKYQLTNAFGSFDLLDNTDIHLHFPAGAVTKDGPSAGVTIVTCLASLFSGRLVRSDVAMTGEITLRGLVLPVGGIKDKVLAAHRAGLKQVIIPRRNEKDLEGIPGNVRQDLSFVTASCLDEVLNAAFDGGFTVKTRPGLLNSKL
In short: as §1

[3] = molecular target: EPG5 (human, UniProt Q9HCE0 1-2579, limits assumed)
Chain of EPG5 (Q9HCE0 whole entry): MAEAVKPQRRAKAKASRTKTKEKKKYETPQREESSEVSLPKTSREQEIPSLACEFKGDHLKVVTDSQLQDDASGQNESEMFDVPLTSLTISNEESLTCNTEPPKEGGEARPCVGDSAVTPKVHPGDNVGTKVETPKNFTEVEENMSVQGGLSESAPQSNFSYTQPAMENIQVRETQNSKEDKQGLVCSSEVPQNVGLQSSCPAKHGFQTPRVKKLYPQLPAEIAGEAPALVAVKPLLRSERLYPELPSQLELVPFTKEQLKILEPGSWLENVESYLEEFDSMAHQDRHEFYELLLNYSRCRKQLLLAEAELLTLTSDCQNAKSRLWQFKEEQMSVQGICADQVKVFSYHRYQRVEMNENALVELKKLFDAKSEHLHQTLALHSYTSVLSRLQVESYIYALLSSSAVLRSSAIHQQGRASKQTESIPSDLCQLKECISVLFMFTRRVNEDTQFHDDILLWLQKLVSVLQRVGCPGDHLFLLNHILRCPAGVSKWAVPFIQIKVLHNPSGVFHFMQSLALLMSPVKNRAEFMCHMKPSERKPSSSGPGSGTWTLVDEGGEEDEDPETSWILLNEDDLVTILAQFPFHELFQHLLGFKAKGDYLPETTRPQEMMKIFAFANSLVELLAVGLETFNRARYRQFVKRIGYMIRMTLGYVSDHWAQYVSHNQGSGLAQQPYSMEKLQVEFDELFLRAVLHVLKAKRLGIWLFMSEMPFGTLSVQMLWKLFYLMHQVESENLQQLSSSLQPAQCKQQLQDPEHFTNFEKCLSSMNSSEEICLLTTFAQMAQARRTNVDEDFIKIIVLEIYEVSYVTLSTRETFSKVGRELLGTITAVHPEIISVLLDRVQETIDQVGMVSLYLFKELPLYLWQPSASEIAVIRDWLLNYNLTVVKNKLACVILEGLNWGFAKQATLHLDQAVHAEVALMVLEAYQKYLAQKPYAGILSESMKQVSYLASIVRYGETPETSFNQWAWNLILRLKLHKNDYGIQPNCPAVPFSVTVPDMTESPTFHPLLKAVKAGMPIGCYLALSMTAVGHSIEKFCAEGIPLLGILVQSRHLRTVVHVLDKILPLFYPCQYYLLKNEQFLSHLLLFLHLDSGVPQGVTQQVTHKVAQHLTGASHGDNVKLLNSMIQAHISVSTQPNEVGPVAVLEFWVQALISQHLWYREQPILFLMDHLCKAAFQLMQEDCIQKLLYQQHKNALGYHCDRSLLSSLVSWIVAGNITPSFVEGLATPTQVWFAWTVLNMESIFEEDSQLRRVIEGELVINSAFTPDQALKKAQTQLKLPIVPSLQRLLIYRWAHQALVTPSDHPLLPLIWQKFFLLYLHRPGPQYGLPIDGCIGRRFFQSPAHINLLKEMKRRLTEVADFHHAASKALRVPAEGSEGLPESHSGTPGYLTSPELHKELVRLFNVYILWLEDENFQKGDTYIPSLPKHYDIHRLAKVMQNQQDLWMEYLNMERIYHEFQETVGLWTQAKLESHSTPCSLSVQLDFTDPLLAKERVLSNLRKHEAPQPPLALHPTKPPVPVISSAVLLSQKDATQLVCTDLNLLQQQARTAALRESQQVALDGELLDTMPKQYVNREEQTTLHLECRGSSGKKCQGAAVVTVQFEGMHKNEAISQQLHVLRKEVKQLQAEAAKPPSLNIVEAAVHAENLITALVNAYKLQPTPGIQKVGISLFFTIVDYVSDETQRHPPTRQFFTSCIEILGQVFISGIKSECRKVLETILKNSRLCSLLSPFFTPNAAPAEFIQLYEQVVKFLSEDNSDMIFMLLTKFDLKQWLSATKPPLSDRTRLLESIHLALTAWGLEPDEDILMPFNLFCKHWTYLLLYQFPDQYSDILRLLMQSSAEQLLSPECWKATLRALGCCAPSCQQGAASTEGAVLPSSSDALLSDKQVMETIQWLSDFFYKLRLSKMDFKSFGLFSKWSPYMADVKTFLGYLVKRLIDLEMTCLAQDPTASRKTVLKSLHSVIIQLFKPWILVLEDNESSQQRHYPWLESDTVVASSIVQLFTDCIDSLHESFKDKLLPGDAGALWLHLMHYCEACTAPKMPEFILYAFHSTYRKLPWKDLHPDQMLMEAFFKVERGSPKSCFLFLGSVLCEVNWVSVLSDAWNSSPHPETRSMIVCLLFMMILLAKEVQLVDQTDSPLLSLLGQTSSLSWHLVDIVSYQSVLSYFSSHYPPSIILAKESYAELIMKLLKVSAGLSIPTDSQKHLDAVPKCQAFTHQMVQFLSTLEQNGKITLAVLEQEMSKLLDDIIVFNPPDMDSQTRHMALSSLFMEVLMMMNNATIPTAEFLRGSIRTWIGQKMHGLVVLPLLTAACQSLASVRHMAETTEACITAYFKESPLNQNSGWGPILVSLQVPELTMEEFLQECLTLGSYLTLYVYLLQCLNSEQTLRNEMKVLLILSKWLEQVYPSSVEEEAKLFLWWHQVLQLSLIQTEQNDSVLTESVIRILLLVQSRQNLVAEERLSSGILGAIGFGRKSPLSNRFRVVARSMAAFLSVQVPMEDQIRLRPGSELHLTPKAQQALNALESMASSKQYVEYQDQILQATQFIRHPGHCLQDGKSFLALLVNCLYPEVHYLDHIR
In short: as §1

Measured: binding result

B1: LZTR1-FLAG (other, human, UniProt Q8N653 1-840, looked up)
chain: MAGPGSTGGQIGAAALAGGARSKVAPSVDFDHSCSDSVEYLTLNFGPFETVHRWRRLPPCDEFVGARRSKHTVVAYKDAIYVFGGDNGKTMLNDLLRFDVKDCSWCRAFTTGTPPAPRYHHSAVVYGSSMFVFGGYTGDIYSNSNLKNKNDLFEYKFATGQWTEWKIEGRLPVARSAHGATVYSDKLWIFAGYDGNARLNDMWTIGLQDRELTCWEEVAQSGEIPPSCCNFPVAVCRDKMFVFSGQSGAKITNNLFQFEFKDKTWTRIPTEHLLRGSPPPPQRRYGHTMVAFDRHLYVFGGAADNTLPNELHCYDVDFQTWEVVQPSSDSEVGGAEVPERACASEEVPTLTYEERVGFKKSRDVFGLDFGTTSAKQPTQPASELPSGRLFHAAAVISDAMYIFGGTVDNNIRSGEMYRFQFSCYPKCTLHEDYGRLWESRQFCDVEFVLGEKEECVQGHVAIVTARSRWLRRKITQARERLAQKLEQEAAPVPREAPGVAAGGARPPLLHVAIREAEARPFEVLMQFLYTDKIKYPRKGHVEDVLLIMDVYKLALSFQLCRLEQLCRQYIEASVDLQNVLVVCESAARLQLSQLKEHCLNFVVKESHFNQVIMMKEFERLSSPLIVEIVRRKQQPPPRTPLDQPVDIGTSLIQDMKAYLEGAGAEFCDITLLLDGHPRPAHKAILAARSSYFEAMFRSFMPEDGQVNISIGEMVPSRQAFESMLRYIYYGEVNMPPEDSLYLFAAPYYYGFYNNRLQAYCKQNLEMNVTVQNVLQILEAADKTQALDMKRHCLHIIVHQFTKVSKLPTLRSLSQQLLLDIIDSLASHISDKQCAELGADI
notes: Expressed in HEK 293T, HeLa or U87 cells; used as cell lysate; also called LZTR1 wild type-FLAG; LZTR1 WT; not shown: FLAG tag at the C-terminus
binds: [1] | [2] | [3]
